# Laboratory results reported in patent US20250270297A1 (DAEGU GYEONGBUK INSTITUTE OF SCIENCE AND TECHNOLOGY, published 2025).
# B1: C32 (Fc fusion)
# VL: DIQMTQSPAIMSASPGERVTMTCSASSSIRYIYWYQQKPGSSPRLLIYDTSNVAPGVPFRFSGSGSGTSYSLTINRMEAEDAATYYCQEWSGYPYTFGGGTKVEIKR
# VH: QVQLVQSGAEVKKPGSSVKVSCKASGGSFSSYAISWVRQAPGQGLEWMGGIIPIFGTANYAQKFQGRVTITADESTSTAYMELSSLRSEDTAVYYCANLRGGSSHYGMDVWGQGTLVTVSS
# B2: C11 (Fc fusion)
# VL: ETTLTQSPGTLSVSPGERVTLSCRASQSVSSYLAWYQQKPGQAPRLLIYGASTRATGIPDRFSGSGSGTDFTLTISRLEPEDFAVYYCQQYGISPLNFGGGTKVEIK
# VH: QVQLVQSGAEVKKPGSSVKVSCKASGGTFSSYAISWVRQAPGQGLEWMGGVIPIFGTANYAQKFRGRVTMTTDTSTSTAYMELRSLTSDDTAVYYCASPQGTWSTFLEWQGAFSVWGQGTTVTVSS
# B3: C8 (Fc fusion)
# VL: QSALTQPASASGSPGQSVTISCTGTSSDVGGYNYVSWYQQHPGKAPKLMIYDVSKRPSGVSDRFSGSKSGNTASLTISGLQAEDGADYYCSSYRRGRTVVFGGGTKLTVL
# VH: QVQLQQWGGGLVQPGGSLRLSCAASGFTFSSYAMSWVRQAPGKGLEWVSAISGSGGSTYYADSVKGRFTISRDNSKNTLYLQMNSLRAEDTAVYYCAKNYFGNPRGFDYWGQGTMVTVSS
# Molecular target: T1, rhACE2 (ACRO, Human ACE2/ACEH Protein, His Tag, #AC2-H52H8) (human, UniProt Q9BYF1 18-740)
# T1 construct: not shown: His tag
# Test: ELISA, rhACE2 coated at 0.2 ug/well, antibody at 0.02-2.5 ug/ml, anti-human-Fc-HRP, absorbance at 450 nm
# T1 sequence (Q9BYF1 18-740 limits assumed): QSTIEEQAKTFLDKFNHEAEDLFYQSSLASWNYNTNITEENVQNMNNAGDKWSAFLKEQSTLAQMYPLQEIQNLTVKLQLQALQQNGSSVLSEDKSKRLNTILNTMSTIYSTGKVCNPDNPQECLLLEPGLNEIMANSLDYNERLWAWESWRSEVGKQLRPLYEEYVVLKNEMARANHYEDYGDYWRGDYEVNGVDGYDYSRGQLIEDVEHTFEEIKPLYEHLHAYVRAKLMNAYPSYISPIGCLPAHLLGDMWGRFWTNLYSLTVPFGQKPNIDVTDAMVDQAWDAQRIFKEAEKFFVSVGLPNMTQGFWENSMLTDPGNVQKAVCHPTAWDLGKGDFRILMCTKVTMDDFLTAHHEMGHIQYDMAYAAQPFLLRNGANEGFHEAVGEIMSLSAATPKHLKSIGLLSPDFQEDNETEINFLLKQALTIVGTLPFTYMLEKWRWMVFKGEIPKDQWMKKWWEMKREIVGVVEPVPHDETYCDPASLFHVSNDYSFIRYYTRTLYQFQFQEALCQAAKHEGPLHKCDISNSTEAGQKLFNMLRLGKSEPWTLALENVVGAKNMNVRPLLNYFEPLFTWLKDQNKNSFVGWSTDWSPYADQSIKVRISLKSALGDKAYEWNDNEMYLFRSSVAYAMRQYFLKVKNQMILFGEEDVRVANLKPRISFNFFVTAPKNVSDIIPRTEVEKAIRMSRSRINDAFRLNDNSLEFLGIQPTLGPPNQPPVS
row,Binder,binding result
1,B1,binds
2,B2,binds
3,B3,binds
